Experimental data taken from US20110166203A1, “ANTI-HEPATITIS C VIRUS COMPOSITION” (OSAKA UNIVERSITY, priority 2008, published 2011).

How the values were obtained:
[1] = test system: HCV replicon RNA; test: HCV replicon Renilla luciferase replication assay in control and PA28γ knockdown cells; format: cell-based, hepatitis C virus; settings: knockdown cells C5 (KD5) vs control cells (Cntrl5), 24, 48, 96 h normalized to 4 h
Description: Virus replication by replicon was evaluated in the same manner except that the control cells and knockdown cells prepared in Section 1 above were used, as described in Krieger et al. (Krieger et al., J. Virol., 75:4614-4624, 2001).
A cDNA encoding Renilla luciferase was introduced between AscI and PmeI of a plasmid pFK-1389 neo/NS3-3′/NK5.1, instead of a neogene. The resulting plasmid pFK-1389 hRL/NS3-3/NK5.1 was cleaved at ScaI, and […] in vitro using a MEGAscript T7 kit (Ambion). A suspension of Huh7 cells (10×10^6 cells/mL) was prepared, and 400 μl of the suspension was mixed with 10 μg of in vitro transcription RNA. This was followed by electroporation performed under the conditions 270 V and 960 μF using a Gene Pulser™ (Bio-Rad). The electroporated cells were suspended in 25-ml medium, and inoculated in a 12-well culture plate (1 ml/well). Then, luciferase activities at hour 4, 24, 48, and 96 post infection were measured using a Renilla Luciferase assay system (Promega).
The synthesized HCV replicon RNA, and the HCV replicon GND RNA with the inactivated RNA polymerase activity were transfected into control shRNA cells and PA28γ knockdown cells C5, and luciferase activity was measured.
The measured values in each combination were normalized by dividing the values after 24, 48, and 96 hours by the value after 4 hours.

[2] = test system: hepatitis C virus JFH1; test: Virus titer of culture supernatant after JFH1 infection of PA28γ constant knockdown cells; format: cell-based; settings: empty plasmid transfected; JFH1 MOI 0.024; 10 days culture; knockdown cells vs control cells
Description: The control cells (control shRNA) and PA28γknockdown cells C5 and C7 were transfected with pEFFLAGGspGBK or pEFFLAGGsPA28gammaSI plasmid. The next day, the medium was replaced with 10% fetal bovine serum Dulbecco's modified Eagle's medium supplemented with 3 μg/mL puromycin, and the cells were further cultured for 24 hours. The surviving cells were then inoculated in a 12-well plate (2.5×10^4 cells/well), and infected with hepatitis C virus JFH1 at an MOI of 0.024.
The JFH1 gene-containing plasmid pJFH1 was cut with XbaI enzyme, blunted with Mung Bean nuclease, and virus RNA was synthesized using a MEGAscript T7 kit (Ambion). The virus RNA was transfected into Huh7 OK1 cells by electroporation under the conditions 260 V and 960 μF. […] Using Huh7 OK1, the virus titer (ffu/mL) of the culture supernatant was measured according to the method of Wakita et al. (Nat. Med. 11:791-796, 2005), as follows. The Huh7 OK1 cells were infected with the culture supernatant to be measured at 37° C. for 3 hours. […]
The rabbit anti-NS5A antibody prepared by immunizing the peptide from the amino acid residues 409 to 422 of NS5A according to the method described in J. Virol. 79:13473-13482, 2005 was allowed to react with Alexa Fluor® 488-anti-rabbit IgG antibody (Molecular Probe), and the fluorescent cell foci were counted to calculate the virus titer.

[3] = test system: PA28γ gene; test: Selection of RNA interference target sequence by PA28γ expression suppressing effect; format: cell-based, human; settings: among four target sequences from the open reading frame of the PA28γ gene
From the text: A DNA fragment that encodes a short hairpin RNA for knocking down the human PA28γ gene by RNA interference was designed according to the following procedure.
The following four sequences were selected as the target sequences from the open reading frame of the PA28γ gene.
The sequence of SEQ ID NO: 4 corresponds to positions 16 to 36 of the PA28γ coding region represented by SEQ ID NO: 5.

[4] = test system: PA28γ; test: PA28γ detection by western blotting in shRNA-transfected Huh7 OK1 clones; format: cell-based, human; settings: clones C5 and C7 vs Huh7 Ok1 cells and control shRNA cells
Description: The DNA fragment was incorporated between the BamHI and Hind III sites of a pSilencer 2.1 U6-hygro vector (Ambion; Austin, Tex.), and introduced by lipofection to Huh7 OK1 cells sensitive to the hepatitis C virus JFH1 strain. The cells were then cultured for 1 week in a 10% fetal bovine serum Dulbecco's modified Eagle's medium supplemented with 0.1 mg/mL hygromycin. The cells were cloned by limiting dilution, and two clones, named C5 and C7, with low PA28γ expression levels were selected by western blotting.
Separately, a commercially available pSilencer 2.1-U6 hygro negative control vector (Ambion) having no complementarity to human PA28γ gene was treated by the same procedure to establish single clones that had the same PA28γ expression level as the parental strain (control cells; hereinafter, also referred to as “control shRNA”).
The Huh7 Ok1 cells, the control cells, and the PA28γ knockdown cells C5 and C7 were lysed, and the lysate was subjected to SDS-polyacrylamide gel electrophoresis for the detection of PA28γ and β-actin by western blotting using anti-PA28γ antibody (Affiniti) and anti-actin antibody (Sigma Aldrich Japan).

B1: shRNA against PA28γ: short hairpin RNA against target sequence SEQ ID NO: 4 (…), encoded by DNA fragment SEQ ID NO: 6 in pSilencer 2.1 U6-hygro vector (nucleic acid)
DNA: GGATCCGGTGGATCAGGAAGTGAAGTTCAAGAGACTTCACTTCCTGATCCACCTTTTTTGGAAAAGCTT
modifications: the letters are possibly those of the target site
luciferase value (virus replication by replicon) [1]: no difference in luciferase value
virus production (virus titer) [2]: significantly lower
PA28γ expression suppressing effect [3]: remarkable expression suppressing effect
PA28γ expression level [4]: lower PA28γ expression levels
